Laboratory results from publication PMC8733265, “Microscale thermophoresis suggests a new model of regulation of cardiac myosin function via interaction with cardiac myosin-binding protein C” (The Journal of Biological Chemistry, 2021).
One block for each molecule: values may come before it.

B1: recombinant human cardiac myosin tail domain, first 126 amino acids of myosin subfragment-2 (myosin S2Δ) (domain or fragment, UniProt P12883 838-963, looked up)
chain: PLLKSAEREKEMASMKEEFTRLKEALEKSEARRKELEEKMVSLLQEKNDLQLQVQAEQDNLADAEERCDQLIKNKIQLEAKVKEMNERLEDEEEMNAELTAKKRKLEDECSELKRDIDDLELTLAK
modifications: Alexa 647-NHS label where it was the labelled partner; unlabelled where it was titrated
notes: human cardiac (β) myosin heavy chain, first 126 amino acids of subfragment-2; also called myosin tails; source: E. coli BL21(DE3)-RIPL, purified (HisTrapFF, TEV, ion exchange); not shown: His tag, N-terminal, cleaved

Tests used:
[1] = molecular target: bovine β-cardiac myosin S1 (bovine) (UniProt Q9BE39); assay: MST; Monolith NT.115; 100 nmol/l Alexa647-labelled protein fixed, partner titrated; 20 mmol/l Mops pH 7, 1 mmol/l MgCl2, 50 mmol/l KCl, 1 mmol/l DTT, 0.05% Tween-20
bovine β-cardiac myosin S1 (bovine), sequence (Q9BE39 whole entry, chain 1 of 2, the tested form may be a part): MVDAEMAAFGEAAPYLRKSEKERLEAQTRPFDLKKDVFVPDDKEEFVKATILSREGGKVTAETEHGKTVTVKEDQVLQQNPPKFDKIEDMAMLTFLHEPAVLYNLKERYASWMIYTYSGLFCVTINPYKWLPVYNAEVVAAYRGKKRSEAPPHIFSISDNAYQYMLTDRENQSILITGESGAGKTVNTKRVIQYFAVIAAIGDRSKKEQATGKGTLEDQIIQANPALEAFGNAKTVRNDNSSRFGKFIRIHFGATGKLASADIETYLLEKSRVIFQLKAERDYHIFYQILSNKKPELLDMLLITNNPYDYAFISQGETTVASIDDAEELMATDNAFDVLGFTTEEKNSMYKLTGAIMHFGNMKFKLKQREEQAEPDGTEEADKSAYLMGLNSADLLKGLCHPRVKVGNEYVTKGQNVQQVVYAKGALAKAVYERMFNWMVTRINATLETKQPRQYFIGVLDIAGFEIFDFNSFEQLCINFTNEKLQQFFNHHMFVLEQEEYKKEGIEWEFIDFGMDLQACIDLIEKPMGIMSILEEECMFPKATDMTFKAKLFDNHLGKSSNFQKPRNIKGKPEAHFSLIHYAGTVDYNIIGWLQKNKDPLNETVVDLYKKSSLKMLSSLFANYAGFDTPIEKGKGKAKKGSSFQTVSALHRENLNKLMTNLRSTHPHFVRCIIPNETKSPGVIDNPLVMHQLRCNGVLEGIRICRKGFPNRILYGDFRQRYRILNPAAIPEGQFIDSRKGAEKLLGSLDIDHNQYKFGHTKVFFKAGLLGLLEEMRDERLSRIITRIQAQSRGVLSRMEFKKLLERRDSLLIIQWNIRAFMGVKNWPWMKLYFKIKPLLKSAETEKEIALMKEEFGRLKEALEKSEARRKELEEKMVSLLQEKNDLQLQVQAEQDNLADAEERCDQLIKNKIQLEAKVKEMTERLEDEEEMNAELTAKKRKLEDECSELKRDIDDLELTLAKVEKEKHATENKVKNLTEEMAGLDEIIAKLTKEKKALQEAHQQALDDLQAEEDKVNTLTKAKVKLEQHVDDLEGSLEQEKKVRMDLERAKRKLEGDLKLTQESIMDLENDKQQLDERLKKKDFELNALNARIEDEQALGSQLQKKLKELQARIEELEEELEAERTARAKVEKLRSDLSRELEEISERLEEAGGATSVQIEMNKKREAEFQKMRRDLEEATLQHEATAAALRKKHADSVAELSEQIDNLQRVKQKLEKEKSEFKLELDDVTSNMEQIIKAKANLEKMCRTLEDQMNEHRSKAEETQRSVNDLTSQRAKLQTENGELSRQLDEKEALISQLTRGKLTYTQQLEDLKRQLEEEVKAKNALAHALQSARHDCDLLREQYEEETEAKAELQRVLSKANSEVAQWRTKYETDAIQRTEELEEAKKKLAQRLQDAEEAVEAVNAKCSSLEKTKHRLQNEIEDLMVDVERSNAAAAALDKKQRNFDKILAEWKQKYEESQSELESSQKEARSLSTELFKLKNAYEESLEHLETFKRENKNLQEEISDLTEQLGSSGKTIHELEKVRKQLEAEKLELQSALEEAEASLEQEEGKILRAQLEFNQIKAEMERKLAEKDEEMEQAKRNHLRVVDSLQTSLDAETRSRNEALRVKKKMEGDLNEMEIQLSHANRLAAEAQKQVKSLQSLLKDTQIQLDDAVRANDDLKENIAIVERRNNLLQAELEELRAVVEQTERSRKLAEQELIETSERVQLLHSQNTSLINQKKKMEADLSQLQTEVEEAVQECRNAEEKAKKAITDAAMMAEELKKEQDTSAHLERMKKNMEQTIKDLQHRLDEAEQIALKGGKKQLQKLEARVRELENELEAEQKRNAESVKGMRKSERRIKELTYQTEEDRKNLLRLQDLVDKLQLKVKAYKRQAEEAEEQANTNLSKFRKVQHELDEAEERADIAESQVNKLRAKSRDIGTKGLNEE
bovine β-cardiac myosin S1 (bovine), sequence (P85100 whole entry, chain 2 of 2, further chain, the tested form may be a part): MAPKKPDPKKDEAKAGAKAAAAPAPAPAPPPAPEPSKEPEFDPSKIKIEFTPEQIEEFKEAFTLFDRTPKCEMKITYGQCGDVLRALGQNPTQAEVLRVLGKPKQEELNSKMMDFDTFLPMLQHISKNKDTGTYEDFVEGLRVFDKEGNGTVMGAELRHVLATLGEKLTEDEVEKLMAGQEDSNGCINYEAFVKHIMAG

[2] = molecular target: recombinant human cardiac myosin tail domain, first 126 amino acids of myosin subfragment-2 (myosin S2Δ) (human) (UniProt P12883); assay: as above
[3] = molecular target: bovine β-cardiac myosin S1 (bovine) (UniProt Q9BE39); assay: MST; competition: C5C7 titrated into a mixture of Alexa647-labelled myosin S1 and C2C4
[4] = molecular target: bovine β-cardiac myosin S1 myosin S1 (head domain) (UniProt Q9BE39); assay: microscale thermophoresis titration; conditions: reference: unphosphorylated C0C2
[5] = molecular target: human cardiac myosin tail domain (myosin S2Δ; also the heavy-chain part of miniHMM) miniHMM heavy-chain part containing myosin S2Δ (UniProt P12883); assay: microscale thermophoresis titration; conditions: reference: unphosphorylated C0C2
[6] = molecular target: human cardiac myosin tail domain (myosin S2Δ; also the heavy-chain part of miniHMM) miniHMM heavy-chain part containing myosin S2Δ (UniProt P12883); assay: microscale thermophoresis titration; conditions: reference: unphosphorylated C0C2; remark: listed apart in the source
[7] = molecular target: cMyBP-C (cardiac myosin-binding protein C) C0C2 (C0-P/A-C1-m-C2) (UniProt Q14896); assay: microscale thermophoresis titration; conditions: reference: unphosphorylated miniHMM
[8] = molecular target: cMyBP-C (cardiac myosin-binding protein C) C0C2 (C0-P/A-C1-m-C2) (UniProt Q14896); assay: microscale thermophoresis titration; conditions: reference: unphosphorylated miniHMM; remark: listed apart in the source
[9] = molecular target: T1, bovine β-cardiac myosin S1 (bovine, UniProt Q9BE39 1-1935; P85100 1-199; Q3SZE5 1-166, Alexa 647-NHS label (chain and site not stated)); assay: MST; Monolith NT.115; 100 nmol/l Alexa647-labelled protein fixed, partner titrated; 20 mmol/l Mops pH 7, 1 mmol/l MgCl2, 50 mmol/l KCl, 1 mmol/l DTT, 0.05% Tween-20
T1 construct: β-cardiac myosin heavy chain (MHC), bovine, the part that lies in subfragment 1; essential light chain (ELC) of bovine cardiac myosin, labelled on the gel of isolated S1; regulatory light chain (RLC) of bovine cardiac myosin, labelled on the gel of isolated S1; the text says that an intact RLC neck region is not present in this S1; Used at 100 nmol/l as the Alexa647-labelled partner in MST; also …
T1 sequence (Q9BE39 whole entry, chain 1 of 2, the tested form may be a part): as the sequence (Q9BE39 whole entry, chain 1 of 2, the tested form may be a part) above
T1 sequence (P85100 whole entry, chain 2 of 2, the tested form may be a part): as the sequence (P85100 whole entry, chain 2 of 2, further chain, the tested form may be a part) above

C0C1 fragment of cMyBP-C = molecular target: T2, C0C1 fragment of cMyBP-C (UniProt Q14896 1-258); assay: as above; conditions: both partners purified
T2 construct: also called C0-P/A-C1; source: E. coli BL21(DE3)-RIPL, purified (HisTrapFF, TEV, ion exchange); not shown: His tag, N-terminal, cleaved
T2 sequence (Q14896 1-258): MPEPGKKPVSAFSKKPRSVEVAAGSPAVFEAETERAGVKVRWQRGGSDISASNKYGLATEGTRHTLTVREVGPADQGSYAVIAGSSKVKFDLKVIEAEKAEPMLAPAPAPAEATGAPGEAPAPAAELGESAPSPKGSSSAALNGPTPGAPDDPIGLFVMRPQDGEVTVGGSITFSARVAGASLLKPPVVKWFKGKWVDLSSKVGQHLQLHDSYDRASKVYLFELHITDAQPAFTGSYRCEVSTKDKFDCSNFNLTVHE

C5C7 segment of cMyBP-C = molecular target: T3, C5C7 segment of cMyBP-C (UniProt Q14896 645-967); assay: as above; conditions: both partners purified
T3 construct: also called C5–C6–C7; wildtype C5C7; source: E. coli BL21(DE3)-RIPL, purified (HisTrapFF, TEV, ion exchange); not shown: His tag, N-terminal, cleaved
T3 sequence (looked up): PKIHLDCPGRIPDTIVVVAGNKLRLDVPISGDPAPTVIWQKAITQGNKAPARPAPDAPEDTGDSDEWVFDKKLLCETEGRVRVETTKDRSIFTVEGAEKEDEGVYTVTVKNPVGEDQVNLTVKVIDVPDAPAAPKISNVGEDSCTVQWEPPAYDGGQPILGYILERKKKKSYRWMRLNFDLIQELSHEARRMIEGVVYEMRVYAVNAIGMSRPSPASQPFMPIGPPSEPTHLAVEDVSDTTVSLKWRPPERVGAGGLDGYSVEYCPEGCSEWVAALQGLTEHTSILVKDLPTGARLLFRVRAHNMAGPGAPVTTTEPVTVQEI

[10] = molecular target: miniHMM, recombinant fragment of human cardiac myosin containing the myosin S2Δ tail domain bound to two RLCs (human), P12883; assay: MST; as the other MST titrations but pH adjusted to 6.2 for the isolated m-motif; 100 nmol/l Alexa647-labelled protein fixed
miniHMM, recombinant fragment of human cardiac myosin containing the myosin S2Δ tail domain bound to two RLCs (human), P12883, sequence (P12883 whole entry, stated change not applied, the tested form may be a part): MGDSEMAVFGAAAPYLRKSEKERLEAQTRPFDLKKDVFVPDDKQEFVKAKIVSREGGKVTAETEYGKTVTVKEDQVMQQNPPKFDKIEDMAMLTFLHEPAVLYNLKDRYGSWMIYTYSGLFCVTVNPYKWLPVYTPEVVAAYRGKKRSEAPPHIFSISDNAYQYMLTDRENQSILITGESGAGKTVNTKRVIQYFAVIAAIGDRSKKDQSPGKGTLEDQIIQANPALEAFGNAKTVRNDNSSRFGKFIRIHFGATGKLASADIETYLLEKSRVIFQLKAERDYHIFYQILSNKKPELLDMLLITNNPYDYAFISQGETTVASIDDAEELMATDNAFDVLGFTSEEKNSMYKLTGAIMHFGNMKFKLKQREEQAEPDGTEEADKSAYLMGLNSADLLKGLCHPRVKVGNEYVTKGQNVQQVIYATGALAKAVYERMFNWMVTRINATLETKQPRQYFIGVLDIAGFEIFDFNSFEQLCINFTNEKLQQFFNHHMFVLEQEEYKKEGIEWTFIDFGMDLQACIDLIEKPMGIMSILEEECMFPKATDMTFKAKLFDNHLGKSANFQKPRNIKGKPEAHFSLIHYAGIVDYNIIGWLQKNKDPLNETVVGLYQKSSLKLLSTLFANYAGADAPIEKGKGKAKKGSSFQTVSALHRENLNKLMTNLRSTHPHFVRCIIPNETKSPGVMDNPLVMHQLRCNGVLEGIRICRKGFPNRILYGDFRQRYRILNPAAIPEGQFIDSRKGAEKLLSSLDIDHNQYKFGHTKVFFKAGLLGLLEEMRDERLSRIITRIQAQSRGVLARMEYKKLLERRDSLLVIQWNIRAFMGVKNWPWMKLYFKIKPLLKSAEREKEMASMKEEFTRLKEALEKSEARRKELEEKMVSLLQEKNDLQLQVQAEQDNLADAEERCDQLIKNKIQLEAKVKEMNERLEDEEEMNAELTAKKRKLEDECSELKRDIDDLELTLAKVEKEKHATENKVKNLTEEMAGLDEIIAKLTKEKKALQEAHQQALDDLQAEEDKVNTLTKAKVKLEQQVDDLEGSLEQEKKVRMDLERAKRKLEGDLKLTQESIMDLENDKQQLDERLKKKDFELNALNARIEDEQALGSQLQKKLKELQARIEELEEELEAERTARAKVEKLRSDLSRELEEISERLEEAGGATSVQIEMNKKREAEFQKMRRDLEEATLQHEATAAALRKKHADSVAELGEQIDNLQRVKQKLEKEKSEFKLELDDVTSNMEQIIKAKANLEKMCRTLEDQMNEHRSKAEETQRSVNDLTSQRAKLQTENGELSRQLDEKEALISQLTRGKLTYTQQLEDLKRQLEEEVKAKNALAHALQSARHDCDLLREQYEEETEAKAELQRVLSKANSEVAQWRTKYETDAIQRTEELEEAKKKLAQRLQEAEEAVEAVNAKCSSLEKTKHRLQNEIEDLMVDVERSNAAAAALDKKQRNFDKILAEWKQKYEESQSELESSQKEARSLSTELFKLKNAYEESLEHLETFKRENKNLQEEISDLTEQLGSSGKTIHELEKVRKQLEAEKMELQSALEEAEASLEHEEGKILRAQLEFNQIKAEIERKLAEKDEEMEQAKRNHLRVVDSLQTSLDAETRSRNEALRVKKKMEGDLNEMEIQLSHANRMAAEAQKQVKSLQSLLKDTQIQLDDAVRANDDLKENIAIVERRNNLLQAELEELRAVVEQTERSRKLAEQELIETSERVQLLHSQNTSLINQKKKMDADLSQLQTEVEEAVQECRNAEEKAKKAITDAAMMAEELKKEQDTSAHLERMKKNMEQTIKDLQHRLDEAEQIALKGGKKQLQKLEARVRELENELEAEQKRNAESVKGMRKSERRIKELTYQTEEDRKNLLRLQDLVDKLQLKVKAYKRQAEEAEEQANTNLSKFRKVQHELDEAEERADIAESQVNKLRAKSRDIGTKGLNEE

domain C0 of cMyBP-C = molecular target: T4, domain C0 of cMyBP-C (UniProt Q14896 1-101); assay: MST; Monolith NT.115; 100 nmol/l Alexa647-labelled protein fixed, partner titrated; 20 mmol/l Mops pH 7, 1 mmol/l MgCl2, 50 mmol/l KCl, 1 mmol/l DTT, 0.05% Tween-20; conditions: both partners purified
T4 construct: source: E. coli BL21(DE3)-RIPL, purified (HisTrapFF, TEV, ion exchange); not shown: His tag, N-terminal, cleaved

domain C1 of cMyBP-C = molecular target: T5, domain C1 of cMyBP-C (UniProt Q14896 151-258); assay: as above; conditions: both partners purified
T5 construct: source: E. coli BL21(DE3)-RIPL, purified (HisTrapFF, TEV, ion exchange); not shown: His tag, N-terminal, cleaved
T5 sequence (Q14896 151-258): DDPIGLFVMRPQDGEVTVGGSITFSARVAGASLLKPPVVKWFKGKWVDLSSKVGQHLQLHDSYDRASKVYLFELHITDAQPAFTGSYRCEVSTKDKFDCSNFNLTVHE

domain C2 of cMyBP-C = molecular target: T6, domain C2 of cMyBP-C (UniProt Q14896 362-452); assay: as above; conditions: both partners purified
T6 construct: source: E. coli BL21(DE3)-RIPL, purified (HisTrapFF, TEV, ion exchange); not shown: His tag, N-terminal, cleaved
T6 sequence (Q14896 362-452): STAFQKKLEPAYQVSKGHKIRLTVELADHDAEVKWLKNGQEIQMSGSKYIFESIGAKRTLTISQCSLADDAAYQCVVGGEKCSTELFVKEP

[11] = molecular target: T7, C0C2, cMyBP-C spanning domains C0 to C2 (UniProt Q14896 1-452); assay: as above; conditions: both partners purified
T7 construct: also called N-terminal domains (NTD) of cMyBP-C; C0-P/A-C1-m-C2; source: E. coli BL21(DE3)-RIPL, purified (HisTrapFF, TEV, ion exchange); not shown: His tag, N-terminal, cleaved

C2C4 segment of cMyBP-C = molecular target: T8, C2C4 segment of cMyBP-C (UniProt Q14896 362-633); assay: as above; conditions: both partners purified
T8 construct: also called C2–C3–C4; C2C4 module; source: E. coli BL21(DE3)-RIPL, purified (HisTrapFF, TEV, ion exchange); not shown: His tag, N-terminal, cleaved
T8 sequence (Q14896 362-633): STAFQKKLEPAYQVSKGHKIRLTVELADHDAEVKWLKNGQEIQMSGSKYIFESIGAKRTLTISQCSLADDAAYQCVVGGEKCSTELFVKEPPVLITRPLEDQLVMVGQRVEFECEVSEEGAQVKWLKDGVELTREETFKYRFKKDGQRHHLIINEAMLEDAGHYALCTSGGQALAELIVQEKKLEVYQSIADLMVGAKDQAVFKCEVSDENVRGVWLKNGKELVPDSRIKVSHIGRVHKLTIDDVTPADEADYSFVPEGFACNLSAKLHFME

[12] = molecular target: T1, bovine β-cardiac myosin S1; assay: MST; as the other MST titrations but pH adjusted to 6.2 for the isolated m-motif; 100 nmol/l Alexa647-labelled protein fixed; conditions: both partners purified
[13] = molecular target: B1; assay: as above; conditions: both partners purified

Molecule: C0C2-3P, tris-phosphorylated C0C2 (from UniProt Q14896 1-452) (domain or fragment)
- Kd [1]: 2.2 µM

Molecule: C0C2-truncated cMyBP-C (ΔC0C2-cMyBP-C) (from UniProt Q14896 453-1274) (domain or fragment)
- Kd [1]: 0.51 µM

Molecule: C5C7-R820Q (from UniProt Q14896 1-1274) (domain or fragment)
- Kd [1]: 1.3 µM
- Kd [2]: 59.1 µM

Molecule: C5C7-R943Q (from UniProt Q14896 1-1274) (domain or fragment)
- Kd [1]: 0.61 µM
- Kd [2]: 32.6 µM

Molecule: cMyBP-C (cardiac myosin-binding protein C) C0C2 (C0-P/A-C1-m-C2) (from UniProt Q14896) PKA tris-phosphorylated C0C2-3P, IEC purified
- KD [4]: same; reference 3.4 ± 0.3
- KD [5]: weaker; reference 3.4 ± 0.1
- KD [6]: weaker; reference 2.7 ± 0.1

Molecule: domain C2 of cMyBP-C (from UniProt Q14896 362-452) (domain or fragment)
- Kd [1]: 42.3 µM

Molecule: full-length cardiac myosin-binding protein C (cMyBP-C) (from UniProt Q14896 1-1274) (natural protein)
- Kd [1]: 0.3 µM

Molecule: B1
- Kd [9]: 0.6 µM
- Kd (C0C1 fragment of cMyBP-C): 199 µM
- Kd (C5C7 segment of cMyBP-C): 25.8 µM

B2: isolated m-motif of cMyBP-C (domain or fragment)
chain: HEAMGTGDLDLLSAFRRTSLAGGGRRISDSHEDTGILDFSSLLKKRDSFRTPRDSKLEAPAEEDVWEILRQAPPSEYERIAFQYGVTDLRGMLKRLKGMRRDEKK
modifications: here or on the partner: Unphosphorylated (bacterial expression). Limits taken as the interval between the annotated C1 (153-256) and C2 (362-452) domains. / Limits not printed. C-terminus from S2Δ as the first 126 residues o
- Kd [10]: 49.7 µM

B4: isolated m-motif of cMyBP-C (domain or fragment)
chain: HEAMGTGDLDLLSAFRRTSLAGGGRRISDSHEDTGILDFSSLLKKRDSFRTPRDSKLEAPAEEDVWEILRQAPPSEYERIAFQYGVTDLRGMLKRLKGMRRDEKK
- Kd [12]: 183 µM
- Kd [13]: 41.4 µM

Results, then the molecule that gave them:

- Kd [1]: 3.8 µM
Molecule: C0C1 fragment of cMyBP-C (from UniProt Q14896 1-258) (domain or fragment)

- Kd [1]: 3.4 µM
- Kd [2]: 6.5 µM
Molecule: C0C2, cMyBP-C spanning domains C0 to C2 (from UniProt Q14896 1-452) (domain or fragment)

- Kd [1]: 0.38 µM
Molecule: C2C4 segment of cMyBP-C (from UniProt Q14896 362-633) (domain or fragment)

- EC50 [3]: 3.8 µM
- Kd [1]: 0.77 µM
Molecule: C5C7 segment of cMyBP-C (from UniProt Q14896 645-967) (domain or fragment)

- Kd [1]: 0.43 µM
- Kd [2]: 73.9 µM
Molecule: C5C7-N755K (from UniProt Q14896 1-1274) (domain or fragment)

- Kd [1]: 91.3 µM
Molecule: domain C0 of cMyBP-C (from UniProt Q14896 1-101) (domain or fragment)

- Kd [1]: 3.8 µM
Molecule: domain C1 of cMyBP-C (from UniProt Q14896 151-258) (domain or fragment)

- Kd [1]: 25 µM
Molecule: domain C3 of cMyBP-C (from UniProt Q14896 453-543) (domain or fragment)

- Kd [1]: 2.5 µM
Molecule: domain C4 of cMyBP-C (from UniProt Q14896 544-633) (domain or fragment)

- KD [7]: same; reference 3.4 ± 0.1
- KD [8]: stronger; reference 9.7 ± 0.5
Molecule: myosin regulatory light chain (RLC) in miniHMM (from UniProt P10916) cMLCK-phosphorylated miniHMM

- Kd (domain C0 of cMyBP-C): 335 µM
- Kd (domain C1 of cMyBP-C): 17 µM
- Kd (domain C2 of cMyBP-C): 502 µM
- Kd [11]: 3.4 µM
- Kd (C0C1 fragment of cMyBP-C): 10.3 µM
- Kd (C2C4 segment of cMyBP-C): 4.7 µM
- Kd (C5C7 segment of cMyBP-C): 3.2 µM
B3: miniHMM, recombinant fragment of human cardiac myosin containing the myosin S2Δ tail domain bound to two RLCs (complex)
chain 1: RDSLLVIQWNIRAFMGVKNWPWMKLYFKIKPLLKSAEREKEMASMKEEFTRLKEALEKSEARRKELEEKMVSLLQEKNDLQLQVQAEQDNLADAEERCDQLIKNKIQLEAKVKEMNERLEDEEEMNAELTAKKRKLEDECSELKRDIDDLELTLAK
chain 2: APKKAKKRAGGANSNVFSMFEQTQIQEFKEAFTIMDQNRDGFIDKNDLRDTFAALGRVNVKNEEIDEMIKEAPGPINFTVFLTMFGEKLKGADPEETILNAFKVFDPEGKGVLKADYVREMLTTQAERFSKEEVDQMFAAFPPDVTGNLDYKNLVHIITHGEEKD
modifications: Limits not printed. C-terminus from S2Δ as the first 126 residues of S2 (838-963 by convention). N-terminus taken at the start of the RLC-binding heavy-chain helix (about 808). RLC initiator Met …
